Data as given in paper PMC12445000, “Domain-Specific DNA Binding Activities of BRCA1 Reveal Substrate Preferences for Homologous Recombination and Telomere Regulation”.

How the values were obtained:
[1] = molecular target: BRCA1 DBD2 (human, UniProt P38398 894-1057); assay: BLI; 150 mM KCl; BLI (BLItz, SAX sensors, immobilized biotin-DNA) in Buffer H: 20 mM HEPES pH 7.5, 150 mM KCl, 5 mM TCEP, 5% glycerol, 25 C; steady-state 1:1 fit; errors 95% CI, n=3; settings: protein: recombinant, tags: Ni-NTA purified (details not given)
[2] = molecular target: BRCA1 DBD1 (human, UniProt P38398 330-554); assay: as above; settings: protein: recombinant, tags: Ni-NTA purified (details not given)
[3] = label: 5' biotin on strand 1, 5' Cy3 on strand 2, blunt

Sequence of BRCA1 DBD2 (P38398 894-1057): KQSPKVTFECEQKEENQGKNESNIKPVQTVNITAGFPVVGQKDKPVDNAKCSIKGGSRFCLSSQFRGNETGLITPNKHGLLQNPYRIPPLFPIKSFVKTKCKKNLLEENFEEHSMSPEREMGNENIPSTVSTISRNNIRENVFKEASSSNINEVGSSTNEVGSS
Sequence of BRCA1 DBD1 (P38398 330-554): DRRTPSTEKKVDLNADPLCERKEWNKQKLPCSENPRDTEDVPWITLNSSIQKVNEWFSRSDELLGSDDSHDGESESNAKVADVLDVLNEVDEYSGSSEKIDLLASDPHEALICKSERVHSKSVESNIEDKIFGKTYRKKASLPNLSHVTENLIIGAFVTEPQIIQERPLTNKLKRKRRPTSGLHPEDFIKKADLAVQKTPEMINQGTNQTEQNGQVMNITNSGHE

TTAGGGTTAGGGTTAGGGTTAGGG (structured_DNA) [BioG4Telo (G4)]
Kd ([1]; label: 5' biotin, G4): 34.7 ± 16.1 nM | Kd ([2]; label: 5' biotin, G4): 67.2 ± 12.5 nM

B1: Bioss60R (ssDNA) (ssDNA)
DNA: CCATGGCTCCTGAGCTAGCTGCAGTAGCCTAAAGGATGAAACTAGGATCTTATGCTCCAT
Kd ([1]; label: 5' biotin): 40.8 ± 3.7 nM | Kd ([2]; label: 5' biotin): 68.4 ± 33.8 nM

B2: Biods60R (dsDNA) (dsDNA)
DNA 1: B1 DNA
DNA 2: ATGGAGCATAAGATCCTAGTTTCATCCTTTAGGCTACTGCAGCTAGCTCAGGAGCCATGG
Kd [1, 3]: 44.6 ± 6 nM | Kd [2, 3]: 35.5 ± 9 nM
